Measured values taken from patent US20100135904A1 (RESEARCH DEVELOPMENT FOUNDATION, published 2010).

B1: endogenous human GRP78 (glucose regulated protein 78) at the cell surface (receptor)
chain: not shown
notes: whole, on cells; Endogenous protein; surface pool labelled with cell-impermeable biotin in the co-immunoprecipitations; also called BiP; cell surface GRP78
B2: TGF-β type I receptor, HA-tagged (TβRI-HA) (receptor, UniProt P36897 34-503, looked up, not shown: small tags and cut ends)
chain: LQCFCHLCTKDNFTCVTDGLCFVSVTETTDKVIHNSMCIAEIDLIPRDRPFVCAPSSKTGSVTTTYCCNQDHCNKIELPTTVKSSPGLGPVELAAVIAGPVCFVCISLMLMVYICHNRTVIHHRVPNEEDPSLDRPFISEGTTLKDLIYDMTTSGSGSGLPLLVQRTIARTIVLQESIGKGRFGEVWRGKWRGEEVAVKIFSSREERSWFREAEIYQTVMLRHENILGFIAADNKDNGTWTQLWLVSDYHEHGSLFDYLNRYTVTVEGMIKLALSTASGLAHLHMEIVGTQGKPAIAHRDLKSKNILVKKNGTCCIADLGLAVRHDSATDTIDIAPNHRVGTKRYMAPEVLDDSINMKHFESFKRADIYAMGLVFWEIARRCSIGGIHEDYQLPYYDLVPSDPSVEEMRKVVCEQKLRPNIPNRWQSCEALRVMAKIMRECWYANGAARLTALRIKKTLSQLSQQEGIKM
notes: whole, on cells; Gift construct; also called TBβRI-HA; TBβRI
B3: Cripto mutant lacking the CFC domain (ΔCFC), Flag-tagged (ligand, not shown: small tags and cut ends)
chain: not shown
notes: also called Cripto ACFC mutant; ACFC

Experiments:
[1] = target: T1, TGF-β type II receptor, His-tagged (TβRII-His) (UniProt P37173 23-166, limits assumed); experiment: anti-His immunoprecipitation from surface-biotinylated 293T cells, avidin-HRP and anti-GRP78 blots
T1 construct: whole, on cells; Gift construct; also called TBβRII-His; TBβRII; not shown: His tag
Experimental: (§1) Cell lysates and immunoprecipitations. Cell lysates were prepared in RIPA buffer as previously described (Gray et al., 2006). For immunoprecipitation experiments, 1-5 mg protein extract was pre-cleared by protein G-PLUS-Agarose beads for 2 hours at 4° C. The pre-cleared extracts were incubated as indicated with 40 μl anti-FLAG M2 gel beads or 20 μl G-PLUS-Agarose pre-incubated with 15 μl anti-GRP78 (KDEL), 10 μl anti-HA, or 25 μl anti-His for 2 hours at 4° C. Immunoprecipitates were subsequently washed 4 times with RIPA buffer and 2 times with 54K buffer (50 mM tris pH 7.9, 150 mM NaCl, 0.5% Triton X-100). The proteins were then eluted either by heating the beads at 95° C. in sample buffer or by the addition of 50 μl of Flag peptide (1 μg/μl) followed by removal of any remaining associated proteins by heating in sample buffer. Western blotting
(§2) The finding that GRP78 inhibits TGF-β signaling raised the possibility that it does so by binding directly to type I and/or type II TGF-β signaling receptors. […] Here the inventors have further tested whether GRP78 similarly co-immunoprecipitates with TBβRI and TBβRII. […] Each of these proteins was immunoprecipitated as bait and then immune complexes were assessed for the presence of GRP78. […] However, only Cripto pulled down endogenous GRP78 as detected both by avidin-HRP and anti-GRP78 antibody (FIG. 5).

[2] = target: B1; experiment: anti-HA immunoprecipitation from surface-biotinylated 293T cells, avidin-HRP and anti-GRP78 blots
Experimental: as §1, §2

[3] = target: T2, human GRP78 with a hemagglutinin (HA) epitope at its C terminus (human, UniProt P11021 19-654); experiment: cell-free pull-down of biotinylated GRP78-HA on Cripto mutant beads
T2 construct: also called GRP78-HA; WT GRP78-HA
From the text: To further characterize the ability of Cripto to bind cell surface GRP78, the inventors tested whether GRP78 from one population of cells could bind mature Cripto isolated from a separate cell population in a cell free system. […] The beads were then washed again and bound proteins were eluted with Flag peptide and subjected to Western blotting using avidin-HRP, anti-GRP78 or anti-Cripto antibodies. […] Moreover, biotinylated (i.e. cell surface-labeled) GRP78 was specifically eluted from beads previously exposed to Cripto-Flag lysates but not from beads exposed to vector lysates.
In order to explore the interaction between Cripto and GRP78 further, the inventors used the method described above (FIG. 2B) to test whether cell surface labeled GRP78 binds Cripto mutants lacking either the EGF-like domain (AEGF) or CFC domain (ACFC). In this experiment, the inventors assessed the ability of biotinylated, HA-tagged GRP78 from one cell population to bind wild type and mutant forms of Cripto originating from separate cell populations.

T1 sequence (P37173 23-166 limits assumed): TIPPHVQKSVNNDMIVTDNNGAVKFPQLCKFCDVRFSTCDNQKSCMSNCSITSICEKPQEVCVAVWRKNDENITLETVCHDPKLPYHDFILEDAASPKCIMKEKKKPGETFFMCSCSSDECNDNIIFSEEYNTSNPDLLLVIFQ
T2 sequence (P11021 19-654 limits assumed): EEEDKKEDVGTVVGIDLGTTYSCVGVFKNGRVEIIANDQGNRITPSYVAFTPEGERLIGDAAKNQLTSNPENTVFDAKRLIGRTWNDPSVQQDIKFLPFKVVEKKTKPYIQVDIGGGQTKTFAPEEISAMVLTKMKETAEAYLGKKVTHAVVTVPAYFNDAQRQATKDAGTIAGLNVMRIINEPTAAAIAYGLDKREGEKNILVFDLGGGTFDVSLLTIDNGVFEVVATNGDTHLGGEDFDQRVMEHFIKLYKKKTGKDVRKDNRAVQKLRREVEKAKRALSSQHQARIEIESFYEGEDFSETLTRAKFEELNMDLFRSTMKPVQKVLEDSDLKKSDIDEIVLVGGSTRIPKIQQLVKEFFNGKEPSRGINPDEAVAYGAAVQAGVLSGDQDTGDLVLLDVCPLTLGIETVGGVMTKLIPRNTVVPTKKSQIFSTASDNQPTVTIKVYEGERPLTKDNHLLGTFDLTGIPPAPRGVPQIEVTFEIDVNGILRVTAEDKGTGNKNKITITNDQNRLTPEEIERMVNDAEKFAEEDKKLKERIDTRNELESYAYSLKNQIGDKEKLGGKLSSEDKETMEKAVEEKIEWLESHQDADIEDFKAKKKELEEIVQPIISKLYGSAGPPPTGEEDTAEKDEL

Binder: B1
- binding result [1]: no binding

Binder: B2
- binding result [2]: no binding

Binder: B3
- binding result [3]: no binding
